# Assay results as given in paper PMC6882843.
# Target: ToxT from Vibrio cholerae serogroup O42 strain SCE-256, wild type, purified (Vibrio cholerae serogroup O42 strain SCE-256) (UniProt Q7BGC0)
# Experiment: SEC-SAXS
substance,measurement,value
"ToxT from Vibrio cholerae serogroup O42 strain SCE-256, wild type, purified (from UniProt Q7BGC0 1-276) (natural protein)",stoichiometry N,2
